{"source": "patent US20190002846A1", "about": "“POLYPEPTIDES HAVING DEMETHYLATING ACTIVITY” (Genencor International B.V., priority 2015, published 2019)", "molecules": {"B1": {"name": "PPO7: Myceliophthora thermophila C1 polyphenoloxidase with demethylating activity, mature form SEQ ID NO: 45 (protein, listed as Myceliophthora thermophila)", "chain": "NPMHKRWKPNAPRNPDFPLDEVDKLEESIMPNVEAWMSKRPAKYSNCTLENAGIRREWSDLSVDERKEYISAVLCLQSKPSKIPEGEVPGALSRFDDFVATHMTMAGQLHSPTNLFAAHRYFIHAYEKALREECGYKGYQPYMNYDRYADDPLNTPLFDGSDSSMSGNGGPYNYSGIPQPFPKPYNLIPPAGGGGCVTEGPFRDMVVSLGPKGGLFHDIPRNPRADGLGSNPRCLRRDVNKYSARGARANYTYSAIMDNPDIDSFYNRYMGMPQLKGDPYPWGLHSSGHYLIGGDPGGDFYCSPGDPLFYFHHGMLDRVWWIWQMQDPENRVQAVPGTNTMPMPPLMAANLESEAAATTTHKRAVNVSDLVVDLGWTAPPVKLVDLNEQLGGLGGELCYIYV"}}, "key": {"[1]": {"assay": "Demethylation of syringic acid (GC methanol, UHPLC/MSMS)", "type": "biochemical", "procedure": "Syringic acid (12 mM, 2.38 g/L) was incubated with PPO7 from Example 2 (1.2 μM, 0.048 g/L, 2% loading (w/w)) in 50 mM BisTris buffer pH 6.5 with 10 μM CuSO4. Blank prepared without the addition of enzyme was included. Incubations were performed in GC headspace vials with a total of 1 mL reaction volume in duplicate at room temperature for approximately 90 h. The reaction was stopped by adding 28 μL 1M HCl to lower the pH to ˜3. One of the replicates was analyzed by GC for the methanol formation. A calibration range of 0.23 to 11.6 mM methanol in buffer with HCl was included. The second replicate was analyzed using UHPLC and the formation 3,4-dihydroxy-5-methoxybenzoic acid was confirmed using MSMS (see FIG. 5)."}, "[2]": {"assay": "Methanol formation by GC, summary statement for lignin and lignin-derived compounds", "type": "biochemical", "conditions": "lignin and lignin-derived compounds 10 g/L, enzyme 0.5 g/L", "procedure": "(§1) Model compounds syringic acid, syringol, 1,3-dimethoxybenzene and 3,5-dimethoxybenzoic acid (12 mM) were incubated with PPO7 from Example 2 (2% loading (w/w)) in 50 mM BisTris buffer pH 6.5 with 10 μM CuSO4. For syringic acid and syringol PPO2 from Example 2 was included as a control. Lignin and lignin-derived compounds (10 g/L) were incubated with PPO7 from Example 2 (0.5 g/L, 5% loading (w/w)). PPO2 from Example 2 was included as a control and incubated using the same conditions. Blanks prepared without the addition of enzyme were included. Incubations were performed in GC headspace vials with a total of 1 mL reaction volume at 25° C. for approximately 48 h while shaking. The reaction was stopped by adding 28 μL 1M HCl to lower the pH to ˜3. Samples were analyzed by GC for methanol formation. A calibration range of 0.23 to 11.5 mM methanol in buffer with HCl was included."}, "[3]": {"target": "T1, RAC incubated with LPMO9B (Thermothelomyces thermophilus, UniProt G2QCJ3)", "T1 construct": "made in house; host or cells: Myceliophthora thermophila C1 strain W1L#100.1Δpyr5ΔAlp1", "T1 sequence (G2QCJ3 19-323)": "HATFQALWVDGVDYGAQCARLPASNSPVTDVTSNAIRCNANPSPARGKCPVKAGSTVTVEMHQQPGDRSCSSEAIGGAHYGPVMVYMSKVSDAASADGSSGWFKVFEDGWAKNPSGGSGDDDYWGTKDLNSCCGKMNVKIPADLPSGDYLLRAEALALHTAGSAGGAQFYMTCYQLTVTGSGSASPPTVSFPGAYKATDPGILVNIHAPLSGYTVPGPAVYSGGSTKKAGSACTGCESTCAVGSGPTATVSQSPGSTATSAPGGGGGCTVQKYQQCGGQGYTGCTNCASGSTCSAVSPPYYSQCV", "assay": "RAC hydrolysis assay with LPMO9B and PPO7 or AbTyr in the presence of phenolic reducing agents", "type": "biochemical, Myceliophthora thermophila", "conditions": "LPMO9B alone = 100%, or with added enzyme, pH 5.0, 50° C., 24 h", "procedure": "Phenolic reducing agents were obtained from Sigma-Aldrich (St. Louis, Mo., USA). RAC was prepared as described above and dissolved in 50 mM phospate buffer (pH 5.0) to a final concentration of 1.5 mg/ml. Copper chloride was added to a final concentration of 2.5 μM and a phenolic reducing agent to a final concentration of 2 mM. LPMO9B (5 μg/ml) with or without PPO7 (5 μg/ml) or AbTyr (7.5 U/ml) were added and incubated for 24 h at 50° C. in a head-over-tail rotator in portions of 1 mL total volume (Stuart® rotator, Bibby Scientific LTD, Stone, UK) at 20 rpm. Products were analysed by HPAEC and MALDI-TOF MS as described previously. (Frommhagen M, Sforza S, Westphal A H, Visser J, Hinz S W, Koetsier M J et al. Discovery of the combined oxidative cleavage of plant xylan and cellulose by a new fungal polysaccharide monooxygenase. Biotechnology for Biofuels. 2015; 8:101. doi:10.1186/s13068-015-0284-1). The Activity denoted as Activity * represents total release of non-oxidized and C1-oxidized gluco-oligosaccharides from RAC incubated with LPMO9B in the presence of a phenolic reducing agent and with addition of either AbTyr or PPO7. […] Standard deviations were less than 2%."}, "[4]": {"assay": "Conversion of syringic acid by purified PPO, difference absorbance spectra after 24 h", "type": "biochemical", "conditions": "12 mM syringic acid, purified enzyme 0.048 g/L, pH 6.5, 10 μM CuSO4, room temperature", "procedure": "Syringic acid (12 mM, 2.38 g/L) was incubated with PPO7 and PPO2 from Example 5 (0.048 g/L, 2% loading (w/w)) in 50 mM BisTris buffer pH 6.5 with 10 μM CuSO4. Blank prepared without the addition of enzyme was included. Incubations were performed in HPLC vials with a total of 750 μL reaction volume at room temperature for 24 h. The reaction was stopped by adding 21 μL 1M HCl to lower the pH to ˜3. Samples were filtrated and absorbance spectra were measured (230-1000 nm, 2 nm interval). […] It is to be noted that any change in absorbance in time indicates syringic acid conversion."}, "[5]": {"assay": "Methanol formation by GC, model compound", "type": "biochemical", "conditions": "for methanol: 2% enzyme loading, approx. 48 h", "procedure": "as §1"}, "[6]": {"assay": "Methanol formation by GC, lignin-derived compound", "type": "biochemical", "conditions": "enzyme 0.5 g/L, 25° C., approx. 48 h", "procedure": "as §1"}, "[7]": {"conditions": "12 mM syringic acid, enzyme 0.048 g/L, pH 6.5, 10 μM CuSO4, room temperature, approx. 90 h, blank 0"}}, "data": [{"molecule": "B1", "values": [{"measurement": "3,4-dihydroxy-5-methoxybenzoic acid concentration (UHPLC)", "setting": "[1]; [7]", "result": 1.61, "unit": "mM"}, {"measurement": "methanol concentration (GC)", "setting": "[1]; [7]", "result": 4.84, "unit": "mM"}, {"measurement": "syringic acid concentration (UHPLC)", "setting": "[1]; 12 mM syringic acid, enzyme 0.048 g/L, pH 6.5, 10 μM CuSO4, room temperature, approx. 90 h, blank 10.86", "result": 3.02, "unit": "mM"}, {"measurement": "Demethylation of syringic acid (in words)", "setting": "[1]; formation of 3,4-dihydroxy-5-methoxybenzoic acid and methanol", "result": "catalyzed the demethylation of syringic acid"}, {"measurement": "Methanol concentration compared to the blank (in words)", "setting": "[2]", "result": "increased methanol concentration compared to the blank"}, {"measurement": "Activity: total release of non-oxidized and C1-oxidized gluco-oligosaccharides from RAC", "setting": "[3]; reducing agent 3,4-dihydroxy-5-methoxybenzoic acid 2 mM", "result": 22, "unit": "%"}, {"measurement": "Activity: total release of non-oxidized and C1-oxidized gluco-oligosaccharides from RAC", "setting": "[3]; reducing agent 3,4-dihydroxy-5-methoxycinnamic acid 2 mM", "result": 116, "unit": "%"}, {"measurement": "Activity: total release of non-oxidized and C1-oxidized gluco-oligosaccharides from RAC", "setting": "[3]; reducing agent 3,4-dihydroxybenzoic acid 2 mM", "result": 139, "unit": "%"}, {"measurement": "Activity: total release of non-oxidized and C1-oxidized gluco-oligosaccharides from RAC", "setting": "[3]; reducing agent 3-hydroxy-4-methoxycinnamic acid 2 mM", "result": 7558, "unit": "%"}, {"measurement": "Activity: total release of non-oxidized and C1-oxidized gluco-oligosaccharides from RAC", "setting": "[3]; reducing agent 3-methylcatechol 2 mM", "result": 104, "unit": "%"}, {"measurement": "Activity: total release of non-oxidized and C1-oxidized gluco-oligosaccharides from RAC", "setting": "[3]; reducing agent 4-allyl-2,4-methoxyphenol 2 mM", "result": 108, "unit": "%"}, {"measurement": "Activity: total release of non-oxidized and C1-oxidized gluco-oligosaccharides from RAC", "setting": "[3]; reducing agent 4-hydroxy-3-methoxyphenylactone 2 mM", "result": 131, "unit": "%"}, {"measurement": "Activity: total release of non-oxidized and C1-oxidized gluco-oligosaccharides from RAC", "setting": "[3]; reducing agent caffeic acid 2 mM", "result": 122, "unit": "%"}, {"measurement": "Activity: total release of non-oxidized and C1-oxidized gluco-oligosaccharides from RAC", "setting": "[3]; reducing agent coniferyl aldehyde 2 mM", "result": 562, "unit": "%"}, {"measurement": "Activity: total release of non-oxidized and C1-oxidized gluco-oligosaccharides from RAC", "setting": "[3]; reducing agent ferulic acid 2 mM", "result": 231, "unit": "%"}, {"measurement": "Activity: total release of non-oxidized and C1-oxidized gluco-oligosaccharides from RAC", "setting": "[3]; reducing agent gallic acid 2 mM", "result": 124, "unit": "%"}, {"measurement": "Activity: total release of non-oxidized and C1-oxidized gluco-oligosaccharides from RAC", "setting": "[3]; reducing agent guaiacol 2 mM", "result": 5143, "unit": "%"}, {"measurement": "Activity: total release of non-oxidized and C1-oxidized gluco-oligosaccharides from RAC", "setting": "[3]; reducing agent hesperidin 2 mM", "result": 771, "unit": "%"}, {"measurement": "Activity: total release of non-oxidized and C1-oxidized gluco-oligosaccharides from RAC", "setting": "[3]; reducing agent homovanillic acid 2 mM", "result": 580, "unit": "%"}, {"measurement": "Activity: total release of non-oxidized and C1-oxidized gluco-oligosaccharides from RAC", "setting": "[3]; reducing agent vanillic acid 2 mM", "result": 495, "unit": "%"}, {"measurement": "Spectral change caused by reaction products", "setting": "[4]", "result": "spectral increase between 300 and 500 nm"}, {"measurement": "Syringic acid conversion: negative peak in the difference absorbance spectra between 230 and 300 nm", "setting": "[4]", "result": "more significant for PPO7 than for PPO2"}, {"measurement": "Methanol release (in words)", "setting": "[5]; 1,3-dimethoxybenzene", "result": "no methanol release"}, {"measurement": "methanol", "setting": "[5]; 1,3-dimethoxybenzene 12 mM, 25° C., blank 0", "result": 0, "unit": "mM"}, {"measurement": "Methanol release (in words)", "setting": "[5]; 3,5-dimethoxybenzoic acid", "result": "no methanol release"}, {"measurement": "methanol", "setting": "[5]; 3,5-dimethoxybenzoic acid 12 mM, 25° C., blank 0", "result": 0, "unit": "mM"}, {"measurement": "Demethylation of syringic acid (in words)", "setting": "[5]; Example 9 conditions", "result": "catalyzed the demethylation"}, {"measurement": "Demethylation of syringol (in words)", "setting": "[5]; Example 9 conditions", "result": "catalyzed the demethylation"}, {"measurement": "methanol", "setting": "[5]; Syringic acid 12 mM, pH 6.5, 10 μM CuSO4, 25° C., blank 0", "result": 4.58, "unit": "mM"}, {"measurement": "methanol", "setting": "[5]; Syringol 12 mM, pH 6.5, 10 μM CuSO4, 25° C., blank 0.06", "result": 5.73, "unit": "mM"}, {"measurement": "methanol", "setting": "[6]; Carboxymodified lignin (corn) 10 g/L, blank 0", "result": 0.35, "unit": "mM"}, {"measurement": "methanol", "setting": "[6]; Carboxymodified lignin (wheat)1 10 g/L, blank 0", "result": 0.31, "unit": "mM"}, {"measurement": "methanol", "setting": "[6]; Carboxymodified lignin (wheat)2 10 g/L, blank 0", "result": 0.33, "unit": "mM"}, {"measurement": "methanol", "setting": "[6]; Fractionated BioLignin 10 g/L, blank 0.28", "result": 0.46, "unit": "mM"}, {"measurement": "methanol", "setting": "[6]; Lowest MW from lignin fractionation 10 g/L, blank 0.04", "result": 1.43, "unit": "mM"}, {"measurement": "methanol", "setting": "[6]; Purified wheat straw BioLignin 10 g/L, blank 0.05", "result": 0.21, "unit": "mM"}]}]}
